Reference: FireProtDB (doi:10.1021/ja068849o)

B1: Outer membrane protein A, P0A910 (parent)
chain: MKKTAIAIAVALAGFATVAQAAPKDNTWYTGAKLGWSQYHDTGFINNNGPTHENQLGAGAFGGYQVNPYVGFEMGYDWLGRMPYKGSVENGAYKAQGVQLTAKLGYPITDDLDIYTRLGGMVWRADTKSNVYGKNHDTGVSPVFAGGVEYAITPEIATRLEYQWTNNIGDAHTIGTRPDNGMLSLGVSYRFGQGEAAPVVAPAPAPAPEVQTKHFTLKSDVLFNFNKATLKPEGQAALDQLYSQLSNLDPKDGSVVVLGYTDRIGSDAYNQGLSERRAQSVVDYLISKGIPADKISARGMGESNPVTGNTCDNVKQRAALIDCLAPDRRVEIEVKGIKDVVTQPQA

Variants of: B1
Settings: Escherichia coli (strain K12); pH 9.2; 37 °C; Urea; Fluorescence; Glycine 10 mM; reversible: Yes; structure 1QJP; whole UniProt chain shown

Variant: W36A
- ddG of mutation (higher = less stable): 2 kcal/mol
- denaturant m value: 2.4 kcal/mol/M
- denaturant midpoint (higher = more stable): 3.1 M
- unfolding free energy: 7.3 kcal/mol

Variant: W164A
- ddG of mutation (higher = less stable): 3.1 kcal/mol
- denaturant m value: 2.2 kcal/mol/M
- denaturant midpoint (higher = more stable): 2.8 M
- unfolding free energy: 6.2 kcal/mol

Variant: Y189A F191A
- ddG of mutation (higher = less stable): 1.2 kcal/mol
- denaturant m value: 3.1 kcal/mol/M
- denaturant midpoint (higher = more stable): 2.6 M
- unfolding free energy: 8.1 kcal/mol

Variant: F144A Y162A
- ddG of mutation (higher = less stable): 5.3 kcal/mol
- denaturant m value: 2.1 kcal/mol/M
- denaturant midpoint (higher = more stable): 1.9 M
- unfolding free energy: 4 kcal/mol

Variant: F144A Y162A W164A
- ddG of mutation (higher = less stable): 6.8 kcal/mol
- denaturant m value: 2 kcal/mol/M
- denaturant midpoint (higher = more stable): 1.2 M
- unfolding free energy: 2.5 kcal/mol

Variant: F191A
- ddG of mutation (higher = less stable): 2.4 kcal/mol
- denaturant m value: 2.3 kcal/mol/M
- denaturant midpoint (higher = more stable): 3 M
- unfolding free energy: 6.9 kcal/mol

Variant: Y64A
- ddG of mutation (higher = less stable): 3.8 kcal/mol
- denaturant m value: 2.2 kcal/mol/M
- denaturant midpoint (higher = more stable): 2.6 M
- unfolding free energy: 5.5 kcal/mol

Variant: W28A Y64A
- ddG of mutation (higher = less stable): 6.4 kcal/mol
- denaturant m value: 1.9 kcal/mol/M
- denaturant midpoint (higher = more stable): 1.6 M
- unfolding free energy: 2.9 kcal/mol

Variant: Y76A
- ddG of mutation (higher = less stable): 2.5 kcal/mol
- denaturant m value: 2.2 kcal/mol/M
- denaturant midpoint (higher = more stable): 3.1 M
- unfolding free energy: 6.8 kcal/mol

Variant: Y76A W78A
- ddG of mutation (higher = less stable): 4.2 kcal/mol
- denaturant m value: 2.4 kcal/mol/M
- denaturant midpoint (higher = more stable): 2.1 M
- unfolding free energy: 5.1 kcal/mol

Variant: Y189A
- ddG of mutation (higher = less stable): 0.2 kcal/mol
- denaturant m value: 3.1 kcal/mol/M
- denaturant midpoint (higher = more stable): 2.9 M
- unfolding free energy: 9.1 kcal/mol

Variant: F72A
- ddG of mutation (higher = less stable): 1.2 kcal/mol
- denaturant m value: 2.3 kcal/mol/M
- denaturant midpoint (higher = more stable): 3.5 M
- unfolding free energy: 8.1 kcal/mol

Variant: F144A W164A
- ddG of mutation (higher = less stable): 3.9 kcal/mol
- denaturant m value: 2.3 kcal/mol/M
- denaturant midpoint (higher = more stable): 2.4 M
- unfolding free energy: 5.4 kcal/mol

Variant: Y150A
- ddG of mutation (higher = less stable): 2.7 kcal/mol
- denaturant m value: 2.4 kcal/mol/M
- denaturant midpoint (higher = more stable): 2.8 M
- unfolding free energy: 6.6 kcal/mol

Variant: Y162A W164A
- ddG of mutation (higher = less stable): 5.7 kcal/mol
- denaturant m value: 2.2 kcal/mol/M
- denaturant midpoint (higher = more stable): 1.6 M
- unfolding free energy: 3.6 kcal/mol

Variant: W28A
- ddG of mutation (higher = less stable): 3.6 kcal/mol
- denaturant m value: 1.9 kcal/mol/M
- denaturant midpoint (higher = more stable): 3 M
- unfolding free energy: 5.7 kcal/mol

Variant: W78A
- ddG of mutation (higher = less stable): 2 kcal/mol
- denaturant m value: 2.4 kcal/mol/M
- denaturant midpoint (higher = more stable): 3.1 M
- unfolding free energy: 7.3 kcal/mol
